# Test results from article PMC4823666, “Characterization of a temperature-responsive two component regulatory system from the Antarctic archaeon, Methanococcoides burtonii” (Scientific Reports, 2016).
# Target: the molecule itself
# Assay: SEC; purified LtrK cytoplasmic domain; oligomeric state by size exclusion chromatography; data not shown
protein,measurement,value
"LtrK (low temperature responsive sensor kinase, Mbur_0694), soluble cytoplasmic domain, residues 323-592 (domain or fragment, Methanococcoides burtonii, UniProt Q12Y17 323-592, looked up, LtrK (Mbur_0694) sensor kinase of Methanococcoides burtonii, cytoplasmic domain (HisKA and HATPase domains), residues 323-592; the N-terminal region with the transmembrane domains was deleted; A Tev site lies between GST and LtrK; Both the GST fusion (~59 kDa) and the GST-cleaved protein (~31 kDa) were purified; also called GST-LtrK; SK; source: E. coli BL21 (DE3), solubilised with Triton X-100 …) NKTLEDEVKSKTSELERSNDYLQNANKKLKELDRLKNDFVSMVSHELKTPLTAMKTSSEFLRESECSREIKEEMLDLIIRNIDRQARMVDDLLDISRIESGKMKFTPEDVNIKEIIEISLHNVTKHAKDKSIKIMVNCPDDVPAISTDKDKLIRIFVNLLTNAIKFTPEEGEVTVIVEDHEDYLQTSIKDNGIGILEEKRDKIFDKFYQVDSTATRKAGGTGLGLAIIKGIIDGQGGKIYLESETGKGSTFTFRLPKELKEDDFTEIEGT",stoichiometry N,2
